Measurements as given in article PMC8634136 (The EMBO Journal, 2021).

B1: TIPIN (natural protein, human)
chain: MLEPQENGVIDLPDYEHVEDETFPPFPPPASPERQDGEGTEPDEESGNGAPVRVPPKRTVKRNIPKLDAQRLISERGLPALRHVFDKAKFKGKGHEAEDLKMLIRHMEHWAHRLFPKLQFEDFIDRVEYLGSKKEVQTCLKRIRLDLPILHEDFVSNNDEVAENNEHDVTSTELDPFLTNLSESEMFASELSRSLTEEQQQRIERNKQLALERRQAKLLSNSQTLGNDMLMNTPRAHTVEEVNTDEDQKEESNGLNEDILDNPCNDAIANTLNEEETLLDQSFKNVQQQLDATSRNITEAR
notes: TIPIN, human; Stood in the structure as a subunit of m3; residues 62-147 modelled
B2: AND‐1 (natural protein, human)
chain: MPATRKPMRYGHTEGHTEVCFDDSGSFIVTCGSDGDVRIWEDLDDDDPKFINVGEKAYSCALKSGKLVTAVSNNTIQVHTFPEGVPDGILTRFTTNANHVVFNGDGTKIAAGSSDFLVKIVDVMDSSQQKTFRGHDAPVLSLSFDPKDIFLASASCDGSVRVWQISDQTCAISWPLLQKCNDVINAKSICRLAWQPKSGKLLAIPVEKSVKLYRRESWSHQFDLSDNFISQTLNIVTWSPCGQYLAAGSINGLIIVWNVETKDCMERVKHEKGYAICGLAWHPTCGRISYTDAEGNLGLLENVCDPSGKTSSSKVSSRVEKDYNDLFDGDDMSNAGDFLNDNAVEIPSFSKGIINDDEDDEDLMMASGRPRQRSHILEDDENSVDISMLKTGSSLLKEEEEDGQEGSIHNLPLVTSQRPFYDGPMPTPRQKPFQSGSTPLHLTHRFMVWNSIGIIRCYNDEQDNAIDVEFHDTSIHHATHLSNTLNYTIADLSHEAILLACESTDELASKLHCLHFSSWDSSKEWIIDLPQNEDIEAICLGQGWAAAATSALLLRLFTIGGVQKEVFSLAGPVVSMAGHGEQLFIVYHRGTGFDGDQCLGVQLLELGKKKKQILHGDPLPLTRKSYLAWIGFSAEGTPCYVDSEGIVRMLNRGLGNTWTPICNTREHCKGKSDHYWVVGIHENPQQLRCIPCKGSRFPPTLPRPAVAILSFKLPYCQIATEKGQMEEQFWRSVIFHNHLDYLAKNGYEYEESTKNQATKEQQELLMKMLALSCKLEREFRCVELADLMTQNAVNLAIKYASRSRKLILAQKLSELAVEKAAELTATQVEEEEEEEDFRKKLNAGYSNTATEWSQPRFRNQVEEDAEDSGEADDEEKPEIHKPGQNSFSKSTNSSDVSAKSGAVTFSSQGRVNPFKVSASSKEPAMSMNSARSTNILDNMGKSSKKSTALSRTTNNEKSPIIKPLIPKPKPKQASAASYFQKRNSQTNKTEEVKEENLKNVLSETPAICPPQNTENQRPKTGFQMWLEENRSNILSDNPDFSDEADIIKEGMIRFRVLSTEERKVWANKAKGETASEGTEAKKRKRVVDESDETENQEEKAKENLNLSKKQKPLDFSTNQKLSAFAFKQE
notes: AND-1, human; Only the trimer of SepB domains is ordered in the map; source: Hi5 insect cells (baculovirus), purified (Flag M2, MonoQ, Superdex 200)
B3: PSF1 (natural protein, human)
chain: MFCEKAMELIRELHRAPEGQLPAFNEDGLRQVLEEMKALYEQNQSDVNEAKSGGRSDLIPTIKFRHCSLLRNRRCTVAYLYDRLLRIRALRWEYGSVLPNALRFHMAAEEMEWFNNYKRSLATYMRSLGGDEGLDITQDMKPPKSLYIEVRCLKDYGEFEVDDGTSVLLKKNSQHFLPRWKCEQLIRQGVLEHILS
notes: PSF1 (GINS subunit), human; Stood in the structure as a subunit of m1; also called GINS subunit PSF1; source: Hi5 insect cells, purified as a subunit of hsCMG
B4: POLE2 (natural protein, human)
chain: MAPERLRSRALSAFKLRGLLLRGEAIKYLTEALQSISELELEDKLEKIINAVEKQPLSSNMIERSVVEAAVQECSQSVDETIEHVFNIIGAFDIPRFVYNSERKKFLPLLMTNHPAPNLFGTPRDKAEMFRERYTILHQRTHRHELFTPPVIGSHPDESGSKFQLKTIETLLGSTTKIGDAIVLGMITQLKEGKFFLEDPTGTVQLDLSKAQFHSGLYTEACFVLAEGWFEDQVFHVNAFGFPPTEPSSTTRAYYGNINFFGGPSNTSVKTSAKLKQLEEENKDAMFVFLSDVWLDQVEVLEKLRIMFAGYSPAPPTCFILCGNFSSAPYGKNQVQALKDSLKTLADIICEYPDIHQSSRFVFVPGPEDPGFGSILPRPPLAESITNEFRQRVPFSVFTTNPCRIQYCTQEITVFREDLVNKMCRNCVRFPSSNLAIPNHFVKTILSQGHLTPLPLYVCPVYWAYDYALRVYPVPDLLVIADKYDPFTTTNTECLCINPGSFPRSGFSFKVFYPSNKTVEDSKLQGF
notes: POLE2, human; Stood in the structure as a subunit of m2; residues 1-527 modelled; source: Hi5 insect cells, purified as a subunit of Pol ε

Experiments:
MCM7 = molecular target: T1, MCM7 (human, UniProt P33993 1-719); assay: cryo-EM structure; replisome reconstituted on fork DNA with AMP-PNP, isolated on a glycerol gradient with glutaraldehyde and BS3; 3.2 Å overall; a sample without CLASPIN solved at 3.4 Å; conditions: both partners purified
T1 construct: MCM7, human; Stood in the structure as a subunit of m1; source: Hi5 insect cells, purified as a subunit of hsCMG

TIMELESS = molecular target: T2, TIMELESS (human, UniProt Q9UNS1 1-1208); assay: as above; conditions: both partners purified
T2 construct: Stood in the structure as a subunit of m3; residues 7-803 modelled (527-684 not visualised)
T2 sequence: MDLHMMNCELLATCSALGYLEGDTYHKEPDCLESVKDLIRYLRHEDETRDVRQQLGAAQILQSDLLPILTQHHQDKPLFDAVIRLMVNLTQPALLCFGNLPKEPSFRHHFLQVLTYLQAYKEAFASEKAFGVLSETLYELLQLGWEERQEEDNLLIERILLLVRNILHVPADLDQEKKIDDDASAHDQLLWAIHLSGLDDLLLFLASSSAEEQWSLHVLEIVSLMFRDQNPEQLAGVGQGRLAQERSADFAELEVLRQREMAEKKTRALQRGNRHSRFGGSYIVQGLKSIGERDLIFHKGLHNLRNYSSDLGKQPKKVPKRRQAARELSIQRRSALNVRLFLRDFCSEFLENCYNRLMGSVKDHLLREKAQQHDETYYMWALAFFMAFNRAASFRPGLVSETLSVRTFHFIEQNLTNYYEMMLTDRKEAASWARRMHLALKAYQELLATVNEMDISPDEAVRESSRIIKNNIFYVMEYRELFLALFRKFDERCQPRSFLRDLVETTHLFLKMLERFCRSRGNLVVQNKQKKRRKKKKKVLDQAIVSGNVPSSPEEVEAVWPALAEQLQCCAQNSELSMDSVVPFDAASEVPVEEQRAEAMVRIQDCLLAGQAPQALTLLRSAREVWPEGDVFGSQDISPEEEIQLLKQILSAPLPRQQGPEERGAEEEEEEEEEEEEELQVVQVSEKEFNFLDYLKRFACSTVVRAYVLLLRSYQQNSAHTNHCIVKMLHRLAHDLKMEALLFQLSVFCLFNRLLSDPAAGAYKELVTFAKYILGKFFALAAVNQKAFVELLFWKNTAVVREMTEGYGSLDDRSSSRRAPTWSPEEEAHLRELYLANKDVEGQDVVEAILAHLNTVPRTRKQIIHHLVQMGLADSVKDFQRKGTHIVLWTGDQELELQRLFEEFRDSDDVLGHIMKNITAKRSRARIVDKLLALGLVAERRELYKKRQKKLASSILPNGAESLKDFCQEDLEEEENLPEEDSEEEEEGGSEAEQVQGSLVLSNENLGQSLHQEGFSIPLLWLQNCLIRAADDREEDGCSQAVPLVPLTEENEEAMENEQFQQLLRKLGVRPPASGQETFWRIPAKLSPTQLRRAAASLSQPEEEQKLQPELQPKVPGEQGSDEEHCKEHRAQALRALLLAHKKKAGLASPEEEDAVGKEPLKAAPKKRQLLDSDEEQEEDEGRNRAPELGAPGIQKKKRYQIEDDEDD

[1] = molecular target: T3, human CDC45‐MCM‐GINS (CMG) helicase (human, UniProt P49736 1-904; P25205 1-808; P33991 1-863; P33992 1-734; Q14566 1-821; P33993 …); assay: co-sedimentation; native glycerol gradient without cross-linker (40 mM HEPES-NaOH pH 7.5, 150 mM NaOAc, 0.5 mM TCEP, 500 µM AMP-PNP, 3 mM Mg(OAc)2), 200,000 g, 4°C, 2 h; 100 nM CMG pre-incubated with fork DNA, 1.5-fold molar excess of the other proteins; fractions on silver-stained SDS-PAGE; conditions: both partners purified
T3 construct: MCM2, human; MCM3, human; the construct lacks the 45 additional N-terminal amino acids of the longer isoform used in PDB 6XTX; MCM4, human; MCM5, human; MCM6, human; MCM7, human; CDC45, human; PSF1 (GINS subunit), human; PSF2 (GINS subunit), human; PSF3 (GINS subunit), human; SLD5 (GINS subunit), human; also called hsCMG; source: Hi5 insect cells co-infected with baculoviruses for MCM2-7, GINS …

[2] = molecular target: the molecule itself; assay: cryo-EM structure; replisome reconstituted on fork DNA with AMP-PNP, isolated on a glycerol gradient with glutaraldehyde and BS3; 3.2 Å overall; a sample without CLASPIN solved at 3.4 Å
POLE2 = molecular target: B4; assay: as above; conditions: both partners purified
MCM5 = molecular target: T4, MCM5 (human, UniProt P33992 1-734); assay: as above; conditions: both partners purified
T4 construct: MCM5, human; Stood in the structure as a subunit of m1; source: Hi5 insect cells, purified as a subunit of hsCMG
T4 sequence: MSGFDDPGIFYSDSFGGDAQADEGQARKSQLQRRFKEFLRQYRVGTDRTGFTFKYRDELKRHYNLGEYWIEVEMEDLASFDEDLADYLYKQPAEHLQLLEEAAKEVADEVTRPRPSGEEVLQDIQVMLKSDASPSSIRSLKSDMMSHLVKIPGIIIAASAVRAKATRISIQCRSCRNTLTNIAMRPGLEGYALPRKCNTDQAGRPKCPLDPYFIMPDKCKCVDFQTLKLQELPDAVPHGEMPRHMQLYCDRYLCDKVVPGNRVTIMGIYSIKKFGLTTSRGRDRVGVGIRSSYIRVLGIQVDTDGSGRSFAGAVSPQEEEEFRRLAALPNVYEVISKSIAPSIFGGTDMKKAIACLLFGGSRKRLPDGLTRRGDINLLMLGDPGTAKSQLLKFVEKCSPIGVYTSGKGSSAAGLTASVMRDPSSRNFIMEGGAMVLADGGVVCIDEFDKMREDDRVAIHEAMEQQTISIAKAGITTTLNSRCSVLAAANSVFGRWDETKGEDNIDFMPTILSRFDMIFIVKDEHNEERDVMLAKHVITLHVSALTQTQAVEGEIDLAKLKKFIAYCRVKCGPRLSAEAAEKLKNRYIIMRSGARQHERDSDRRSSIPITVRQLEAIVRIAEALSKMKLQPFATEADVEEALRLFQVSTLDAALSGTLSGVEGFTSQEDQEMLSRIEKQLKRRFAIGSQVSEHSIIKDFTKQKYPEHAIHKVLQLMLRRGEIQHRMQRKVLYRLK

T1 sequence (P33993 whole entry): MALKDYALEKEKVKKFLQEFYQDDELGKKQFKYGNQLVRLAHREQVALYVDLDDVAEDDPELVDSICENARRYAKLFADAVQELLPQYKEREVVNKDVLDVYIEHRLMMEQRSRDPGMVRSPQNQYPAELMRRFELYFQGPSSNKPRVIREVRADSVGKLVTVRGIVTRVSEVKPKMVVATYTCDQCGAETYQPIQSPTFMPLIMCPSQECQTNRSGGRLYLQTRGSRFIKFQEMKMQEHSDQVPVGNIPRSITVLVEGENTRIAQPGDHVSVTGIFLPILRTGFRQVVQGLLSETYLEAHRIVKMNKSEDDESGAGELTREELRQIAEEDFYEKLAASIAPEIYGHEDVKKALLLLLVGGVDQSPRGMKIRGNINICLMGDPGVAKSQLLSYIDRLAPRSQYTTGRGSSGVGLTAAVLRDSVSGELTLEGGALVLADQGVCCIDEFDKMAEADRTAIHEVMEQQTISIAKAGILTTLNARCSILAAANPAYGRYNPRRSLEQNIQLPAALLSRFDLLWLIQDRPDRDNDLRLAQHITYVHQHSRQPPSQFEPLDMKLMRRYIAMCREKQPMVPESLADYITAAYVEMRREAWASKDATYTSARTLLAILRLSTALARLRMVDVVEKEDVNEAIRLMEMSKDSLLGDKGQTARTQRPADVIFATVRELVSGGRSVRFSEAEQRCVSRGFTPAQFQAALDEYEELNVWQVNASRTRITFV

## B1
MCM7
  binding result: binds
TIMELESS
  binding result: binds

## B2
[1]
  binding result: binds
[2]
  stoichiometry N: 3

## B3
POLE2
  binding result: binds

## B4
MCM5
  binding result: binds
